Laboratory results published in the supplement of paper PMC7125110.
± gives the standard error. For some of these results: This sample holds only a part of the variants without activity.

B1: glmS ribozyme (parent)
chain: AUAAAAGCGCCAGAACUACAGAAAUGUAGUUGACGAGGAGGAGGUUUAUCGAAUUUUCGGCGGAUGCCUCCAAA

Tests used:
Conditions in all cases: with glucosamine-6-phosphate
glucosamine-6-phosphate [1] = variants of: B1; test: kcat; higher = faster cleavage; RNA array
Method in brief: (§1)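 Glucosamine-6-phosphate in HEPES/KCl/Mg(OAc)2 buffer, at 40 μM to 10 mM, was flowed over barcoded ribozyme variants transcribed in situ by E. coli RNA polymerase on sequenced MiSeq chips. Tracking was through a hybridised Cy3 probe at 37 °C. kobs, kcat and KM came from exponential decay fits and weighted Michaelis–Menten fits of normalised per-tile medians.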

glucosamine-6-phosphate [2] = variants of: B1; test: KM; higher = weaker cofactor use; RNA array
Method in brief: as §1

glucosamine-6-phosphate [3] = variants of: B1; test: self-cleavage kobs at 160 uM GlcN6P; higher = faster cleavage; RNA array
Method in brief: as §1

glucosamine-6-phosphate [4] = variants of: B1; test: self-cleavage kobs at 640 uM GlcN6P; higher = faster cleavage; RNA array
Method in brief: as §1

glucosamine-6-phosphate [5] = variants of: B1; test: self-cleavage kobs at 2500 uM GlcN6P; higher = faster cleavage; RNA array
Method in brief: as §1

glucosamine-6-phosphate [6] = variants of: B1; test: self-cleavage kobs at 10000 uM GlcN6P; higher = faster cleavage; RNA array
Method in brief: as §1

glucosamine-6-phosphate [7] = variants of: B1; test: self-cleavage kobs at 40 uM GlcN6P; higher = faster cleavage; RNA array
Method in brief: as §1

Variant	kcat (glucosamine-6-phosphate [1])	KM (glucosamine-6-phosphate [2])	self-cleavage kobs at 160 uM GlcN6P (glucosamine-6-phosphate [3])	self-cleavage kobs at 640 uM GlcN6P (glucosamine-6-phosphate [4])	self-cleavage kobs at 2500 uM GlcN6P (glucosamine-6-phosphate [5])	self-cleavage kobs at 10000 uM GlcN6P (glucosamine-6-phosphate [6])	self-cleavage kobs at 40 uM GlcN6P (glucosamine-6-phosphate [7])
U47G G66U	0.000146 ± 7.9e-06 s⁻¹	756 ± 130 µM	3.12e-05 ± 1.5e-05 s⁻¹	6.79e-05 ± 8.7e-06 s⁻¹	0.000106 ± 1.1e-05 s⁻¹	0.000142 ± 1.4e-05 s⁻¹	
A39C U46C U56C	0.000367 ± 3.7e-05 s⁻¹	2880 ± 510 µM		6.45e-05 ± 1.5e-05 s⁻¹	0.000196 ± 5.6e-05 s⁻¹	0.000277 ± 5.9e-05 s⁻¹	
G32A C58A C68U	0.000878 ± 0.00034 s⁻¹			8.56e-05 ± 1.4e-05 s⁻¹	0.000172 ± 7.4e-05 s⁻¹	0.000572 ± 0.00012 s⁻¹	
C16U C50A	2.89e-05 ± 7.6e-06 s⁻¹				4.91e-05 ± 1.8e-05 s⁻¹	2.32e-05 ± 1.1e-05 s⁻¹	
U56A A64C	6.42e-05 ± 1e-05 s⁻¹				6.08e-05 ± 1.1e-05 s⁻¹	5.71e-05 ± 9.1e-06 s⁻¹	< 1e-05 s⁻¹
G32A C67U	0.000858 ± 0.0002 s⁻¹	1940 ± 760 µM	7.5e-05 ± 1.5e-05 s⁻¹	0.00023 ± 2.1e-05 s⁻¹	0.000374 ± 4.7e-05 s⁻¹	0.000854 ± 8.5e-05 s⁻¹	
U45C U57A	1.9e-05 ± 2.7e-06 s⁻¹						
G13U U69A	4.51e-05 ± 1.2e-05 s⁻¹				6.1e-05 ± 1.3e-05 s⁻¹	3.28e-05 ± 1.1e-05 s⁻¹	
U31A C58A	0.00103 ± 0.00024 s⁻¹					0.000242 ± 3.7e-05 s⁻¹	
U57G C61G C70U	2.66e-05 ± 9e-06 s⁻¹			3.58e-05 ± 1.7e-05 s⁻¹			
A14U A33C	7.66e-05 ± 5.8e-06 s⁻¹	1620 ± 560 µM			5.28e-05 ± 1.3e-05 s⁻¹	6.52e-05 ± 7.3e-06 s⁻¹	
U46A A64C	4.04e-05 ± 4.1e-06 s⁻¹						< 1e-05 s⁻¹
G32C A53C	3.63e-05 ± 2.4e-06 s⁻¹		< 1e-05 s⁻¹	< 1e-05 s⁻¹			< 1e-05 s⁻¹
C16G G32A C68U	0.000119 ± 1.4e-05 s⁻¹			0.000129 ± 3.9e-05 s⁻¹	9.95e-05 ± 3.8e-05 s⁻¹	0.000115 ± 1.8e-05 s⁻¹	
G44U U55A	0.000317 ± 4.2e-05 s⁻¹	891 ± 390 µM		0.000157 ± 4e-05 s⁻¹	0.000288 ± 4.6e-05 s⁻¹	0.000273 ± 3.2e-05 s⁻¹	
U55C C58G	0.000215 ± 1.3e-05 s⁻¹				3.85e-05 ± 1.1e-05 s⁻¹	9.91e-05 ± 1.2e-05 s⁻¹	
C16G U45A	0.0107 ± 0.0033 s⁻¹	2340 ± 1100 µM	0.00048 ± 0.00013 s⁻¹	0.00226 ± 0.00044 s⁻¹	0.00423 ± 0.00082 s⁻¹	0.0101 ± 0.0013 s⁻¹	0.000245 ± 3.1e-05 s⁻¹
G41U U69C	4.52e-05 ± 7.4e-06 s⁻¹				3.82e-05 ± 1.3e-05 s⁻¹		

Variant	kcat (glucosamine-6-phosphate [1])	KM (glucosamine-6-phosphate [2])	self-cleavage kobs at 160 uM GlcN6P (glucosamine-6-phosphate [3])	self-cleavage kobs at 640 uM GlcN6P (glucosamine-6-phosphate [4])	self-cleavage kobs at 2500 uM GlcN6P (glucosamine-6-phosphate [5])	self-cleavage kobs at 10000 uM GlcN6P (glucosamine-6-phosphate [6])	self-cleavage kobs at 40 uM GlcN6P (glucosamine-6-phosphate [7])
C10A U30C A53G C67A	1.94e-05 ± 4e-06 s⁻¹						
G37A G66C	0.000578 ± 0.0001 s⁻¹	2250 ± 630 µM	4.54e-05 ± 1.4e-05 s⁻¹	0.000117 ± 1.8e-05 s⁻¹	0.000357 ± 5.8e-05 s⁻¹	0.000439 ± 8.7e-05 s⁻¹	
G29C A33U	2.55e-05 ± 6.2e-07 s⁻¹	979 ± 140 µM				2.33e-05 ± 1.2e-05 s⁻¹	
A6G G66A	0.000421 ± 2.1e-05 s⁻¹	2650 ± 210 µM		8.05e-05 ± 1.4e-05 s⁻¹	0.000217 ± 5.1e-05 s⁻¹	0.000325 ± 7.5e-05 s⁻¹	
A36C A64U	1.13e-05 ± 3.6e-06 s⁻¹			< 1e-05 s⁻¹			< 1e-05 s⁻¹
U47G C50U A64C	1.3e-05 ± 3.4e-06 s⁻¹						
U46A G66U	0.0037 ± 0.001 s⁻¹	5940 ± 2100 µM	8.12e-05 ± 1.9e-05 s⁻¹	0.000412 ± 7.3e-05 s⁻¹	0.00111 ± 0.00027 s⁻¹	0.00229 ± 0.00041 s⁻¹	5.04e-05 ± 2.3e-05 s⁻¹
C50A A53C U57G C58G	6.76e-05 ± 2.5e-05 s⁻¹			0.000112 ± 2.3e-05 s⁻¹	8.01e-05 ± 1.9e-05 s⁻¹		
U46C U69C	0.00112 ± 0.0002 s⁻¹	644 ± 250 µM		0.000644 ± 0.00013 s⁻¹	0.00117 ± 0.00032 s⁻¹	0.000936 ± 0.00019 s⁻¹	5.23e-05 ± 2.2e-05 s⁻¹
U54G C68G	0.0001 ± 1e-05 s⁻¹	89.1 ± 43 µM	6.82e-05 ± 8.7e-06 s⁻¹	0.000111 ± 1.1e-05 s⁻¹	8.41e-05 ± 9.1e-06 s⁻¹	9.69e-05 ± 8.7e-06 s⁻¹	2.37e-05 ± 7.3e-06 s⁻¹
A6G A39U	0.000276 ± 7.5e-06 s⁻¹	1490 ± 84 µM	2.95e-05 ± 1.1e-05 s⁻¹	8.14e-05 ± 1.2e-05 s⁻¹	0.000176 ± 2.3e-05 s⁻¹	0.000239 ± 3.2e-05 s⁻¹	
A48C C67A	0.000168 ± 1e-05 s⁻¹	1800 ± 310 µM		4.27e-05 ± 9.9e-06 s⁻¹	0.000104 ± 1.4e-05 s⁻¹	0.00014 ± 1.4e-05 s⁻¹	
A15G G32U	0.00117 ± 2.6e-05 s⁻¹	2990 ± 100 µM	6.02e-05 ± 1.1e-05 s⁻¹	0.000208 ± 2.6e-05 s⁻¹	0.000525 ± 5.2e-05 s⁻¹	0.000917 ± 0.00013 s⁻¹	
A14G U31A C67G	0.00052 ± 0.00021 s⁻¹		0.000163 ± 3.6e-05 s⁻¹	0.000237 ± 6e-05 s⁻¹	0.000368 ± 0.00011 s⁻¹	0.000966 ± 0.0003 s⁻¹	
G29C A52G	0.000125 ± 7.9e-06 s⁻¹	1940 ± 350 µM		2.88e-05 ± 7.9e-06 s⁻¹	7.18e-05 ± 1e-05 s⁻¹	0.000104 ± 1e-05 s⁻¹	
G13A G66A	0.000323 ± 2.9e-05 s⁻¹	3550 ± 700 µM			0.000129 ± 3.2e-05 s⁻¹	0.000241 ± 4.7e-05 s⁻¹	
U47C C58U	0.000109 ± 7.3e-06 s⁻¹					4.92e-05 ± 8.1e-06 s⁻¹	
